Sequences and labels used below:
B1: DnaJ homolog subfamily C member 5 (Homo sapiens), Q9H3Z4 (parent)
chain: MADQRQRSLSTSGESLYHVLGLDKNATSDDIKKSYRKLALKYHPDKNPDNPEAADKFKEINNAHAILTDATKRNIYDKYGSLGLYVAEQFGEENVNTYFVLSSWWAKALFVFCGLLTCCYCCCCLCCCFNCCCGKCKPKAPEGEETEFYVSPEDLEAQLQSDEREATDTPIVIQPASATETTQLTADSHPSYHTDGFN
partner: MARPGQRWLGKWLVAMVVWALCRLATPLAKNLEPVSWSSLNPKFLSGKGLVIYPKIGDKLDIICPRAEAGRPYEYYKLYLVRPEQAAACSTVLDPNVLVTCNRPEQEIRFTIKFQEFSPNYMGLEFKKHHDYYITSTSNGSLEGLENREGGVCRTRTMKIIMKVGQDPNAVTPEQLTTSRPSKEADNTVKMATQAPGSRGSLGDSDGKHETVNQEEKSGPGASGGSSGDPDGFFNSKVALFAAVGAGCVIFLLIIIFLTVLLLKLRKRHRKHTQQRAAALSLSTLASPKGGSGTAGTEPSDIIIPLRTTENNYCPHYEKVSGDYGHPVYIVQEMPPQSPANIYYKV
B2: DnaJ homolog subfamily C member 5 (Homo sapiens), Q9H3Z4 (parent)
chain: B1 chain
partner: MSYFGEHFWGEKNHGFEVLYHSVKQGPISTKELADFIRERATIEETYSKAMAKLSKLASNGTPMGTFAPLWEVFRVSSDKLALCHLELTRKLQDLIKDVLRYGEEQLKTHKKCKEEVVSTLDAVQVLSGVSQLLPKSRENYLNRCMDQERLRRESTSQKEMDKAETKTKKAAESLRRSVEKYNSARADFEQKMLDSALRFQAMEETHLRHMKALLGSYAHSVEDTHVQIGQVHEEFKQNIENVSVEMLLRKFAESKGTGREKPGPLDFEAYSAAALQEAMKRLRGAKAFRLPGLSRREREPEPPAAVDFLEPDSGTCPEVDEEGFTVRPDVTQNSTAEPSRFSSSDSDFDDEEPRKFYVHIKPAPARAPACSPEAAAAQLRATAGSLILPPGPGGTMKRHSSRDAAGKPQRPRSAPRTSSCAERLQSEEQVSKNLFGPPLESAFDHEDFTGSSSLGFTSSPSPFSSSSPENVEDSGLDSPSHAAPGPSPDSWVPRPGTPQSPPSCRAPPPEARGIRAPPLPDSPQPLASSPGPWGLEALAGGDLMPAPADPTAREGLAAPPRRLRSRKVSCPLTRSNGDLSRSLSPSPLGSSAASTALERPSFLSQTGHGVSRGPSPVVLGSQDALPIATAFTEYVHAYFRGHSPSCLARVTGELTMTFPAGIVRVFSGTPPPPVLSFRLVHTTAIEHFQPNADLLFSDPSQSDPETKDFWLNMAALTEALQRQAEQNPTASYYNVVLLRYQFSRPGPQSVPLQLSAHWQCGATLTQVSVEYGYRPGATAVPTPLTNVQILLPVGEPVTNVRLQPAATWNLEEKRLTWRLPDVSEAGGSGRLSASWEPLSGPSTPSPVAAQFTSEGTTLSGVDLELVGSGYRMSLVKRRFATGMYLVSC
B3: DnaJ homolog subfamily C member 5 (Homo sapiens), Q9H3Z4 (parent)
chain: B1 chain
partner: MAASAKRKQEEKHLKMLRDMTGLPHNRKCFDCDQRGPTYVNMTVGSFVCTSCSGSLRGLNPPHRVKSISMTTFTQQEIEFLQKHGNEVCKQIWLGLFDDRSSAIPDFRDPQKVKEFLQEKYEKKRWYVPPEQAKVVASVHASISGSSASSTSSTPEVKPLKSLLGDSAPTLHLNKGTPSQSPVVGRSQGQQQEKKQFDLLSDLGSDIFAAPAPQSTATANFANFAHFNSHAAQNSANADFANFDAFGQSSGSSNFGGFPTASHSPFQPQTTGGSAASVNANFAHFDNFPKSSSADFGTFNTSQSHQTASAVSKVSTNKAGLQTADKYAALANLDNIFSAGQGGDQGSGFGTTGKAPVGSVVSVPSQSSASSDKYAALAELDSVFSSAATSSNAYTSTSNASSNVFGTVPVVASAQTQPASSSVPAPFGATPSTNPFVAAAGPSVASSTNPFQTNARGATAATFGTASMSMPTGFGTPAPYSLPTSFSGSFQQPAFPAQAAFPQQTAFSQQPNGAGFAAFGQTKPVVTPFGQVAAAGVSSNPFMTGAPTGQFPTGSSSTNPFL
B4: DnaJ homolog subfamily C member 5 (Homo sapiens), Q9H3Z4 (parent)
chain: B1 chain

The values that follow come from IntAct's records for PubMed 29997244.

In one test the parent is B1. The conditions noted are these: with efnb1_human EFNB1, P98172.
Consider L115R, for which the “effect of a mutation on the interaction” value is given as “decreasing interaction strength”.

Variants of B2 are the subject of the next test. To be noted: with fcho1_human FCHO1, O14526.
In the case of L115R, the “effect of a mutation on the interaction” value was “decreasing interaction strength”.

Variants of B3 are the subject of the next test. To be noted: with agfg1_human AGFG1, P52594.
Consider L115R, for which the “effect of a mutation on the interaction” value is “with no effect”.

A further test covers variants of B4. To be noted: with zdh17_human ZDHHC17, Q8IUH5.
Sequence of zdh17_human ZDHHC17, Q8IUH5 (Q8IUH5 whole entry): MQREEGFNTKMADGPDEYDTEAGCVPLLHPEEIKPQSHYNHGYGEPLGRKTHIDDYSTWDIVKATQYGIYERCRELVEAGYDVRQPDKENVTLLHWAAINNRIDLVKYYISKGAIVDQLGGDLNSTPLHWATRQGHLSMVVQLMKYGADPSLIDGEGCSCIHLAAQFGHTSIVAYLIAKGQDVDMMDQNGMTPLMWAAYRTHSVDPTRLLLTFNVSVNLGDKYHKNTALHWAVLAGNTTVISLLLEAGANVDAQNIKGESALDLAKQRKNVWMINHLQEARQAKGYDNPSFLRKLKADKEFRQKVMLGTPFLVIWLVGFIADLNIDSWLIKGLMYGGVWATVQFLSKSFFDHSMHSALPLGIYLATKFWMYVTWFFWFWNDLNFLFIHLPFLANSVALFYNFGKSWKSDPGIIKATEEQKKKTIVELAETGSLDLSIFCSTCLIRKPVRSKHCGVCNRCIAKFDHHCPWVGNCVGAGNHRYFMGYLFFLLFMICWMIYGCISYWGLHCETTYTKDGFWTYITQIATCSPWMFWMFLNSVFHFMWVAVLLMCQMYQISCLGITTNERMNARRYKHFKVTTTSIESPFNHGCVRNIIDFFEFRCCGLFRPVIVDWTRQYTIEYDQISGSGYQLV
As to L115R, the “effect of a mutation on the interaction” value is recorded as “increasing interaction strength”.

The next test covers variants of B4. To be noted: with ap2b1_human AP2B1, P63010.
Sequence of ap2b1_human AP2B1, P63010 (P63010 whole entry): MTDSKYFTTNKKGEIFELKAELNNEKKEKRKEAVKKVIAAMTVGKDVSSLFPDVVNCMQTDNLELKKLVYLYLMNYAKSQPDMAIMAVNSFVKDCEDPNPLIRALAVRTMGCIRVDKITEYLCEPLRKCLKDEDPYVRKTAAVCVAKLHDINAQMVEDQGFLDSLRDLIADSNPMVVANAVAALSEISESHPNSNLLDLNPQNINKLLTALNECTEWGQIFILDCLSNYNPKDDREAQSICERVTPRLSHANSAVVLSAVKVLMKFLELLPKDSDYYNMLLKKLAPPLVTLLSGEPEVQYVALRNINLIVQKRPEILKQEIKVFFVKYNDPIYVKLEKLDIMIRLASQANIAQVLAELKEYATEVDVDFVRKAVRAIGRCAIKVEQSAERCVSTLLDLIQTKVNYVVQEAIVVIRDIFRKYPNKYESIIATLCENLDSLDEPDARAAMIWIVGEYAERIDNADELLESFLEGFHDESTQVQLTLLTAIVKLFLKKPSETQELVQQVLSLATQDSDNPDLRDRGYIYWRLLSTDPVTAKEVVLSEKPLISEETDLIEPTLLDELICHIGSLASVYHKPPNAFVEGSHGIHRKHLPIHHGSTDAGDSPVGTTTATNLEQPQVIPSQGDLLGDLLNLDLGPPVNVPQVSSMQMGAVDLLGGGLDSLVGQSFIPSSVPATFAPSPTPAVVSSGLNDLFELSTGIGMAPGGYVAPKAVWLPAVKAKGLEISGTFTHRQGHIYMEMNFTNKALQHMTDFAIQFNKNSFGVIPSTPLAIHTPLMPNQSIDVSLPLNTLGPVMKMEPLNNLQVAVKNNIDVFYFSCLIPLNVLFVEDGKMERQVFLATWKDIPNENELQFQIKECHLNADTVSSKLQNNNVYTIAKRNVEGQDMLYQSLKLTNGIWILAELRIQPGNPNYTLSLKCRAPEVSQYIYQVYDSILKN
With L115R, the “effect of a mutation on the interaction” value is “with no effect”.

In another test the parent is B4. The conditions noted are these: with caps1_human CADPS.
L115R: the “effect of a mutation on the interaction” value was “with no effect”.

In another test the parent is B4. To be noted: with cskp_human CASK.
Consider L115R, for which the “effect of a mutation on the interaction” value is given as “increasing interaction strength”.

Another test covers variants of B4. To be noted: with lipa1_human PPFIA1, Q13136.
With L115R, the “effect of a mutation on the interaction” value was “with no effect”.

In the next test the parent is B4. To be noted: with lipa4_human PPFIA4, O75335.
Sequence of lipa4_human PPFIA4, O75335 (O75335 whole entry): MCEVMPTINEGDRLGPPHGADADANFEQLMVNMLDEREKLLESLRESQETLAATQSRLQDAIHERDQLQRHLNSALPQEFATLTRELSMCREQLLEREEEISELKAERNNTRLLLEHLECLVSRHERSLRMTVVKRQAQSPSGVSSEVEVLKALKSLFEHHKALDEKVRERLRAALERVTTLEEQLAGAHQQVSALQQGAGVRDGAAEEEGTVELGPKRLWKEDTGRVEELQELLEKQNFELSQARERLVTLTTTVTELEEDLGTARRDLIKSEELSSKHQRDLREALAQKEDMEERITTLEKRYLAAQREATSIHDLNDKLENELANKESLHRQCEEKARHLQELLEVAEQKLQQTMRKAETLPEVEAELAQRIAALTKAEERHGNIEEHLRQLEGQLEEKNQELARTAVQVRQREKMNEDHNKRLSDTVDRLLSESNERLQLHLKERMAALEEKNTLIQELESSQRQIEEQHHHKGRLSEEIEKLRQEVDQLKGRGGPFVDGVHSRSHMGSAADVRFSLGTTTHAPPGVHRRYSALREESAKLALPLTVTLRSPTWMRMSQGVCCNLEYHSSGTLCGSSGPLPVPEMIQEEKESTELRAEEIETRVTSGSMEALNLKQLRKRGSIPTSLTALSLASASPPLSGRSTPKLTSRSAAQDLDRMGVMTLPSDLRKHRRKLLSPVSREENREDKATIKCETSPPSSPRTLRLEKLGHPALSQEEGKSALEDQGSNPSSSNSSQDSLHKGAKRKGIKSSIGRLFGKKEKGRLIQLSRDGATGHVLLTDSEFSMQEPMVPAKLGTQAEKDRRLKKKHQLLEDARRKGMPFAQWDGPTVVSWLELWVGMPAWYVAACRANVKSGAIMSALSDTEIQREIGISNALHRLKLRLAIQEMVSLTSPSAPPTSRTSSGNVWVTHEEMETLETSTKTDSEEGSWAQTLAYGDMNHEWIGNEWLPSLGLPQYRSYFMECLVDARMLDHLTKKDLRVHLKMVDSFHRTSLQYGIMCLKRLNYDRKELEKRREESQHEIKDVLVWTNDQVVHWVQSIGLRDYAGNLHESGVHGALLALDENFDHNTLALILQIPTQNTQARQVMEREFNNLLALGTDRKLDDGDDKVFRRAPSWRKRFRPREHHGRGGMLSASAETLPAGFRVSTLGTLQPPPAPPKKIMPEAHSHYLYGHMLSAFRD
In the case of L115R, the “effect of a mutation on the interaction” value was “increasing interaction strength”.

Variants of B4 are the subject of another test. The conditions noted are these: with rabx5_human RABGEF1, Q9UJ41.
L115R: the “effect of a mutation on the interaction” value was “decreasing interaction strength”.

Variants of B4 are the subject of the next test. To be noted: with sh3g3_human SH3GL3, Q99963.
Regarding L115R, the “effect of a mutation on the interaction” value was “with no effect”.

The next test covers variants of B4. The conditions noted are these: with snp29_human SNAP29, O95721.
Turning to L115R, the “effect of a mutation on the interaction” value is “with no effect”.

The next test covers variants of B4. The conditions noted are these: with syua_human SNCA.
Consider L115R, for which the “effect of a mutation on the interaction” value is “with no effect”.

Variants of B4 are the subject of a further test. To be noted: with zdh17_human ZDHHC17, Q8IUH5. This is another data set of the same source.
Turning to L115R, the “effect of a mutation on the interaction” value is given as “decreasing interaction strength”.

Variants of B4 are the subject of the next test. To be noted: with grm8_human GRM8, O00222.
Sequence of grm8_human GRM8, O00222 (O00222 whole entry): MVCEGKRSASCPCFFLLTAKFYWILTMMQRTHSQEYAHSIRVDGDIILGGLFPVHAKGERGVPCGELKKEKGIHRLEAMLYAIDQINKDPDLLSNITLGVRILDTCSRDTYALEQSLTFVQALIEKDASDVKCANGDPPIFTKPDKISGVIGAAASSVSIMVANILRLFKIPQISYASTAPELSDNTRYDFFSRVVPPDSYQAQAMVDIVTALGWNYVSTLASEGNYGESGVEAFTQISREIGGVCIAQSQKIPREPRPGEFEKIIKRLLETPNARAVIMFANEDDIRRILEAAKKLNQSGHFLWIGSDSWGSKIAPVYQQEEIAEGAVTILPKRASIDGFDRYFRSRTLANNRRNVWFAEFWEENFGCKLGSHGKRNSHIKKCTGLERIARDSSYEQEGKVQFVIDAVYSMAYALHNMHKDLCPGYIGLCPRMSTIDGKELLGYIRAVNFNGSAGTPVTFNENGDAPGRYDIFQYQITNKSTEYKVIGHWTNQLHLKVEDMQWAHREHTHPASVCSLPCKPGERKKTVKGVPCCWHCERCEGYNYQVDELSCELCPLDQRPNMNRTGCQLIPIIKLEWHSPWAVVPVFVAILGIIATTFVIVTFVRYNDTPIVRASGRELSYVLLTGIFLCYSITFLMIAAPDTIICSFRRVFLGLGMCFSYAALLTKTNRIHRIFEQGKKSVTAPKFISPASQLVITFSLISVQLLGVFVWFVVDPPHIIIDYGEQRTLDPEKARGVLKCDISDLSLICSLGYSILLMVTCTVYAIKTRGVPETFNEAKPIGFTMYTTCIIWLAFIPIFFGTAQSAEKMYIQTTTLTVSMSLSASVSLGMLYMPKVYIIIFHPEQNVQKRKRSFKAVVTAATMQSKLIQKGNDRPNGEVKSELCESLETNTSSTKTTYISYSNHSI
With L115R, the “effect of a mutation on the interaction” value was “decreasing interaction strength”.

The variants in another test derive from B4. The conditions noted are these: with nrx3b_human NRXN3, Q9HDB5.
Sequence of nrx3b_human NRXN3, Q9HDB5 (Q9HDB5 whole entry): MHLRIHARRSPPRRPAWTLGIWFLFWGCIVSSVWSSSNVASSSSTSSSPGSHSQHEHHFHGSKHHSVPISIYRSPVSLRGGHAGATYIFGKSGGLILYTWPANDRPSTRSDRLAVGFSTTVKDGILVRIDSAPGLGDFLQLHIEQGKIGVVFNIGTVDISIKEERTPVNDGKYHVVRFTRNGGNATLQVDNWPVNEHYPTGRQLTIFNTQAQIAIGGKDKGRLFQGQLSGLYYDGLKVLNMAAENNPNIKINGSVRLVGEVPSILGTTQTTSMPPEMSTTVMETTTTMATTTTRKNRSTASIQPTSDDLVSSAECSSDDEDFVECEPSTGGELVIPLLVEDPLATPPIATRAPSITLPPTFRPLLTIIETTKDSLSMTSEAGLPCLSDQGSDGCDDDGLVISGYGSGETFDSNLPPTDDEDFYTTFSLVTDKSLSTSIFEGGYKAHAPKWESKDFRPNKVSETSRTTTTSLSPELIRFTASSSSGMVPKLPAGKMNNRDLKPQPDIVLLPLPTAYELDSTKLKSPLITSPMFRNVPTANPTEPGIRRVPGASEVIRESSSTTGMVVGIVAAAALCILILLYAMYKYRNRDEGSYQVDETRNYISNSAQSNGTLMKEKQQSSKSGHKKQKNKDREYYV
With L115R, the “effect of a mutation on the interaction” value is listed as “decreasing interaction strength”.

The variants in a further test derive from B4. The conditions noted are these: with syph_human SYP.
Regarding L115R, the “effect of a mutation on the interaction” value is recorded as “decreasing interaction strength”.

In a further test the parent is B4. To be noted: with syt1_human SYT1, P21579.
Sequence of syt1_human SYT1, P21579 (P21579 whole entry): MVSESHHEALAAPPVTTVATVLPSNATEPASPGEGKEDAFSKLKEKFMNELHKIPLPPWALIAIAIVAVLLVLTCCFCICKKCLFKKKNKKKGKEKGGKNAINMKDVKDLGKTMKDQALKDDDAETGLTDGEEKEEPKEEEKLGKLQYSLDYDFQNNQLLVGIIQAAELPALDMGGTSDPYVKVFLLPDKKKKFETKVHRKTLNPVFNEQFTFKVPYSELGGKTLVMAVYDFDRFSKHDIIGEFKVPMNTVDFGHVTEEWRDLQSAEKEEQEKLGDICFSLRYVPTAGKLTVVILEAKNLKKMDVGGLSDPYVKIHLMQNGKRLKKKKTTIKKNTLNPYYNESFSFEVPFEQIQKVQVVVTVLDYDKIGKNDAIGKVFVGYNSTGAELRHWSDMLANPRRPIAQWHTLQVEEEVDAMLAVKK
Take L115R: the “effect of a mutation on the interaction” value is given as “decreasing interaction strength”.

A further test covers variants of B4. To be noted: with vamp2_human VAMP2, P63027.
Consider L115R, for which the “effect of a mutation on the interaction” value is on record as “decreasing interaction strength”.

In a further test the parent is B4. To be noted: with vamp3_human VAMP3, Q15836.
Sequence of vamp3_human VAMP3, Q15836 (Q15836 whole entry): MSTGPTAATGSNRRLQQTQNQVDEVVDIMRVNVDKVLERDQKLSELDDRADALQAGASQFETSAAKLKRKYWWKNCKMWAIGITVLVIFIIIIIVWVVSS
As to L115R, the “effect of a mutation on the interaction” value is listed as “decreasing interaction strength”.

In a further test the parent is B4. To be noted: with ap2a1_human AP2A1, O95782.
On to L115R, for which the “effect of a mutation on the interaction” value is on record as “with no effect”.

Variants of B4 are the subject of another test. To be noted: with ap2s1_human AP2S1, P53680.
Sequence of ap2s1_human AP2S1, P53680 (P53680 whole entry): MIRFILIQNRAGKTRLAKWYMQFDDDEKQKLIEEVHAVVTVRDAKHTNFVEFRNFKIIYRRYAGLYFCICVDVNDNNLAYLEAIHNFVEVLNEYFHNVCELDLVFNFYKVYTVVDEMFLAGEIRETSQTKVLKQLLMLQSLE
Regarding L115R, the “effect of a mutation on the interaction” value is on record as “with no effect”.
